Reference: patent publication US9327008B2, “Cell-permeant peptide-based inhibitor of kinases” (Purdue Research Foundation, priority 2008, dated 2016)

Experiments:
Format in all cases: biochemical
MAPK1 = target: T1, MAPK1 (Homo sapiens, UniProt P27361); assay: Millipore radiometric kinase activity assay, MAPK1 (h)
T1 construct: purchased Millipore (radiometric assay service)
Procedure: (§1) A commercial radiometric assay service (Millipore, Billerica, Mass.) was used to test the specificity and potency of peptides containing a coupled transduction domain and therapeutic domain, hereinafter “complete peptides”). In these assays, if the kinase is not inhibited by an inhibitor peptide, a positively charged substrate is phosphorylated with a radiolabeled phosphate group from an ATP.
(§2) In a final reaction volume of 25 μL, MAPK1 (h) (5-10 mU) is incubated with 25 mM Tris pH 7.5, 0.02 mM EGTA, 250 μM peptide, 10 mM MgAcetate and [γ-^33P-ATP] (specific activity approx. 500 cpm/pmol, concentration as required). The reaction is initiated by the addition of the MgATP mix. After incubation for 40 minutes at room temperature, the reaction is stopped by the addition of 5 μL of a 3% phosphoric acid solution. 10 μL of the reaction is then spotted onto a P30 filtermat and washed three times for 5 minutes in 75 mM phosphoric acid and once in methanol prior to drying and scintillation counting.
(§3) IC50 values for inhibitor peptides were determined using Millipore's IC50Profiler Express service. The IC50 value was estimated from a 10-point curve of one-half log dilutions. For peptides tested for specificity, the concentration of the peptides that inhibited approximately 95% of MK2 activity was chosen to profile against a battery of kinases related to MK2, cell viability, or human disease from MilliporeKinaseProfiler service. In both assays, compounds were supplied in dimethylsulfoxide (DMSO). Every kinase activity measurement was conducted in duplicate.
(§4) Therapeutic inhibitor peptides were assayed for activity against human kinases related to MK2, cell viability, or human disease. The assays were performed using concentrations of therapeutic inhibitor peptides that yielded 2% to 8% of normal MK2 activity. Error is reported as the standard deviation between 2 samples, and “c” is rat AMPK whereas all other kinases used are human kinases.

PhKγ2 = target: T2, PhKγ2 (Homo sapiens, UniProt P15735); assay: Millipore radiometric kinase activity assay, PhKγ2 (h)
T2 construct: purchased Millipore (radiometric assay service)
T2 sequence (P15735 1-406): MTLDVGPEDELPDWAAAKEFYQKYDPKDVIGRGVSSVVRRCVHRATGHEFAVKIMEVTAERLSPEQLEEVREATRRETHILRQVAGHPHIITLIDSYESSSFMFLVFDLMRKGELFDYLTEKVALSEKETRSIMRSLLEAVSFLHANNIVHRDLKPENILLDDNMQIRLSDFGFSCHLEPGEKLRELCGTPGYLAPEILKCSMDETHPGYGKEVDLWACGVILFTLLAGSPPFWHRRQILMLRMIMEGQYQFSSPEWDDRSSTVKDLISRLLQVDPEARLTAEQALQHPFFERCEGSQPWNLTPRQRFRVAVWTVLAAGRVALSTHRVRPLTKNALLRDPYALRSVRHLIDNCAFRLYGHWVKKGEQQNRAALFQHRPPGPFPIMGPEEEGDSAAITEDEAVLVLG
Procedure: as §1
as §2, with “μL, PhKγ2” for “μL, MAPK1”, “with 8” for “with 25”, “mM MOPS” for “mM Tris”, “pH 7.0, 0.2” for “pH 7.5, 0.02”, “mM EDTA,” for “mM EGTA,”, “μM […] [SEQ ID NO: 52],” for “μM peptide,”
as §3, §4

PKG1β = target: T3, PKG1β (Homo sapiens, UniProt Q13976); assay: Millipore radiometric kinase activity assay, PKG1β (h)
T3 construct: purchased Millipore (radiometric assay service)
T3 sequence (Q13976 1-686 isoform Q13976-2): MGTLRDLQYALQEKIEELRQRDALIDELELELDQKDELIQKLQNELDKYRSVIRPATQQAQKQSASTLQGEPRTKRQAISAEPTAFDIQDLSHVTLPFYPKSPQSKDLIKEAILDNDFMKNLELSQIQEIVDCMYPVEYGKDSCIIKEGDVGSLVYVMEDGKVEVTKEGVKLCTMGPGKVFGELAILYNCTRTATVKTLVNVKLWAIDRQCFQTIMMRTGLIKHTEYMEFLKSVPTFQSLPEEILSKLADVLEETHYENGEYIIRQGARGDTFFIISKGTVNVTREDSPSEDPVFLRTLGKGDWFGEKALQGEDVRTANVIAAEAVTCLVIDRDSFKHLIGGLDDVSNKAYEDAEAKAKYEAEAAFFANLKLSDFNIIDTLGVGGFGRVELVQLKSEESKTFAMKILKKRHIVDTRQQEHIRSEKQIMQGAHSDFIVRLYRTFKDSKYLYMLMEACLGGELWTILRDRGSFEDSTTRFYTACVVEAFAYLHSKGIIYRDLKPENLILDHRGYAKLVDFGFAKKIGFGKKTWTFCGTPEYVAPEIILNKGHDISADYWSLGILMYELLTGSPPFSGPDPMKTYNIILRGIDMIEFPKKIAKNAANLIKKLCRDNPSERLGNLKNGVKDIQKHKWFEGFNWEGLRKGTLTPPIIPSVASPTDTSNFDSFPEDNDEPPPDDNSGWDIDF
Procedure: as §1
as §2, with “μL, PKG1β” for “μL, MAPK1”, “with 8” for “with 25”, “mM MOPS” for “mM Tris”, “pH 7.0, 0.2” for “pH 7.5, 0.02”, “mM EDTA, 10” for “mM EGTA, 250”, “μM cGMP, 200 μM […] [SEQ ID NO: 62],” for “μM peptide,”
as §3, §4

T1 sequence (P27361 whole entry): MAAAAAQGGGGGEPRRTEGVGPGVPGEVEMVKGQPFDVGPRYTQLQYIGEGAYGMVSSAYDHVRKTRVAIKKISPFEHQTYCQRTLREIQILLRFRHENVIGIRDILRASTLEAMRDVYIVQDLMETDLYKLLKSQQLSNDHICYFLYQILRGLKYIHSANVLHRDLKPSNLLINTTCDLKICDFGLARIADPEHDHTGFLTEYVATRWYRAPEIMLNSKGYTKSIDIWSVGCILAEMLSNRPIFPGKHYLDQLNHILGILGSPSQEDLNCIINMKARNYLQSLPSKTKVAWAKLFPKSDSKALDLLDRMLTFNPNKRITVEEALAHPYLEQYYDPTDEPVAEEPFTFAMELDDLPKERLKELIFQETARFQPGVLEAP

Sequence	MAPK1 Kinase Activity (%) (+SD %) (MAPK1; peptide 100 μM)	PhKγ2 Kinase Activity (%) (+SD %) (PhKγ2; peptide 100 μM)	PKG1β Kinase Activity (%) (+SD %) (PKG1β; peptide 100 μM)	MAPK1 Kinase Activity (%) (+SD %) (MAPK1; peptide 30 μM)	PhKγ2 Kinase Activity (%) (+SD %) (PhKγ2; peptide 30 μM)	PKG1β Kinase Activity (%) (+SD %) (PKG1β; peptide 30 μM)
KAFAKLAARLYRKALARQLGVAA	108 (1) %	27 (3) %	24 (5) %			
WLRRIKAWLRRIKALNRQLGVAA	104 (3) %	20 (0) %	15 (1) %	121 (5) %	15 (0) %	15 (4) %
